# Assay results reported in patent US20180251535A1 (ARMAGEN, published 2018).
# B1: chimeric HIRMAb (chimeric monoclonal antibody to the human insulin receptor) (antibody, human IgG1, kappa, V domains shown)
# VH: QVQLQQSGPELVKPGALVKISCKASGYTFTNYDIHWVKQRPGQGLEWIGWIYPGDGSTKYNEKFKGKATLTADKSSSTAYMHLSSLTSEKSAVYFCAREWAYWGQGTLVTVSA
# VL: DIQMTQSPSSLSASLGERVSLTCRASQDIGGNLYWLQQGPDGTIKRLIYATSSLDSGVPKRFSGSRSGSDYSLTISSLESEDFVDYYCLQYSSSPWTFGGGTKMEIKR
# notes: Human IgG1 constant region, kappa light chain; also called HIR Ab; chimeric HIR Ab
# What was measured:
# [1] = molecular target: human insulin receptor extracellular domain (HIR ECD) (human) (UniProt P06213); experiment: ELISA, HIR ECD plated
# [2] = molecular target: human insulin receptor extracellular domain (HIR ECD) (human) (UniProt P06213); experiment: ELISA, HIR ECD plated, detection with biotinylated goat anti-human IgG
# [3] = molecular target: T1, human insulin receptor extracellular domain (HIR ECD) (human, UniProt P06213 28-956, limits assumed); experiment: ELISA, HIR ECD plated, same methods as for FIG. 11
# T1 construct: extracellular domain; Purified on a wheat germ agglutinin column from serum free medium of CHO cells permanently transfected with the HIR ECD (Coloma et al. 2000)
# Procedure: (§1) The affinity of the fusion protein for the HIR extracellular domain (ECD) was determined with an ELISA. CHO cells permanently transfected with the HIR ECD were grown in serum free media (SFM), and the HIR ECD was purified with a wheat germ agglutinin affinity column, as previously described in Coloma et al. (2000) Pharm Res, 17:266-274. The HIR ECD was plated on Nunc-Maxisorb 96 well dishes and the binding of the HIR Ab, or the HIR Ab-IDS fusion protein, to the HIR ECD was detected with a biotinylated goat anti-human IgG (H+L) secondary antibody, followed by avidin and biotinylated peroxidase (Vector Labs, Burlingame, CA). The concentration of either HIR Ab or HIR Ab-IDS fusion protein that gave 50% maximal binding was determined with a non-linear regression analysis.
# [4] = molecular target: T1, human insulin receptor extracellular …; experiment: ELISA, HIR ECD plated on Nunc-Maxisorb wells, detection with biotinylated goat anti-human IgG
# Procedure: as §1
Molecule,reduction in receptor binding affinity (against the HIR Ab) [1],EC50 [2],EC50 [3],EC50 [4]
GUSB-HIR Ab fusion protein (GUSB fused to the amino terminus of the HIR Ab heavy chain) (from UniProt P08236 23-633),95%,4800 pM,,
B1,,,410 pM,320 pM
